Where two headings read alike, the source gives them in different places.
Tests used:
[1] = target: T1, extracellular domain of the IL-4Rα (IL-4 binding protein) (UniProt P24394 26-232, limits assumed, biotinylated at Cys-206); experiment: biosensor (BIA2000), IL4BP immobilised on a streptavidin matrix, room temperature
T1 construct: extracellular domain; Immobilised on the streptavidin-coated matrix of the biosensor through biotin at Cys-206; also called IL4BP; IL-4 specific receptor
T1 sequence (looked up): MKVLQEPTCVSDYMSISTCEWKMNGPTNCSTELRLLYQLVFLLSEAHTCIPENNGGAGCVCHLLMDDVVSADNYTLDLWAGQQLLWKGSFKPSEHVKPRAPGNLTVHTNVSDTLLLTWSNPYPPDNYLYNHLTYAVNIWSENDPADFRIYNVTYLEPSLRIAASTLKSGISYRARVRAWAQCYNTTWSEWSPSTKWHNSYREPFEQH

[2] = target: T1, extracellular domain of the IL-4Rα …; experiment: biosensor (BIA2000), IL4BP biotinylated at Cys-206 on a streptavidin matrix, 25 C
[3] = target: T1, extracellular domain of the IL-4Rα …; experiment: as above; remark: listed apart in the source

Binder | binding result [1] | Kd [2] [mM] | Kd [3] [mM]
Ac-RMKQLEDKVEELLSKNYRLENRVARLEKLVG-NH2 (also: designed to form non-covalent parallel coiled-coil dimer, Synthetic peptide derived from the GCN4 leucine zipper, designed to form a non-covalent parallel coiled-coil dimer) [Model 1] | no binding |  | 
Ac-RMKQLEDKVERLLSRNYRLENEVARLKKLVG-NH2 (not fully specified, Synthetic peptide derived from the GCN4 leucine zipper, designed to form a non-covalent parallel coiled-coil dimer) [Model 2] |  | 4.08 | 4.08

— patent publication US6685932 (EUROPAISCHES LABORATORIUM MOLEKULARBIOLOGIE, dated 2004)
